Assay results taken from patent US20240309112A1 (MITSUBISHI TANABE PHARMA, published 2024).
Where a chain is given by its changes, count along the chain named.

B1: anti-PAD4 antibody 2-1-47 (antibody, human IgG1, lambda, V domains shown)
VH: EVQLLESGGGLVQPGGSLRLSCAASGFTFSTYAMGWVRQAPGKGLEFVAAIRNDGSWTGYGTPYKTRFTISRDNSKNTLYLQMSSLRAEDTAVYYCAKYTGSSGGSIGAWGQGTLVTVSS
VL: SYELTQPPSVSVSPGQTARITCSGGNRNYYYGWYQQKPGQAPVTVIYANDKRPSGIPERFSGSNSGSTTTLTISGVQAEDEADYYCGTATTGKYVFGGGTKLTVLG
notes: Lib2(4R)-1-47 with the 84th asparagine of the heavy chain substituted with serine; full-length IgG from ExpiCHO
B2: humanized anti-PAD4 antibody G8ss (antibody, human IgG1, lambda, V domains shown)
VH: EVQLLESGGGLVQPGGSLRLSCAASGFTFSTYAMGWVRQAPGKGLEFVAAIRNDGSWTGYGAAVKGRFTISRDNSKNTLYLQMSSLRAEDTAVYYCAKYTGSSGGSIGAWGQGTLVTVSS
VL: B1 VL with T90D
notes: G8 with the 84th asparagine of the heavy chain substituted with serine; full-length IgG; also called test antibody G8ss
B3: anti-PAD4 antibody 3-1-39 (antibody, human IgG1, lambda, V domains shown)
VH: B1 VH with Y60T, G61S, T62V, P63N, Y64A
VL: B1 VL
notes: Lib1(6R)-1-39 with the 84th asparagine of the heavy chain substituted with serine; full-length IgG from ExpiCHO
B4: anti-PAD4 antibody 3-2-37 (antibody, human IgG1, lambda, V domains shown)
VH: B1 VH with Y60I, T62Y, P63N, Y64Q, T66S, A97G
VL: B1 VL with T90L
notes: Lib1(6R)-2-37 with the 84th asparagine of the heavy chain substituted with serine; full-length IgG from ExpiCHO
B5: anti-PAD4 antibody 4-2-25 (antibody, human IgG1, lambda, V domains shown)
VH: B1 VH with G61P, T62P, Y64L, T66G
VL: B1 VL with T90Y
notes: Lib2(5R)-2-25 with the 84th asparagine of the heavy chain substituted with serine; full-length IgG from ExpiCHO
B6: humanized anti-PAD4 antibody G8 (antibody, human IgG1, lambda, V domains shown)
VH: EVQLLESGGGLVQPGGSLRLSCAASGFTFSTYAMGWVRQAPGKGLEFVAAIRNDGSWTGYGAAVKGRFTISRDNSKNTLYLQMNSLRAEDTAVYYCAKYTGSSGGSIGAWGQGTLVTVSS
VL: B1 VL with T90D
notes: Full-length IgG, described in WO 2016/143753; also called test antibody G8; parent clone G8
B7: Lib2(4R)-1-47 (antibody, V domains shown)
VH: B1 VH with S84N
VL: B1 VL
notes: Tested as full-length antibody (human IgG1/human k) from Expi293; also called Lib(4R)-1-47
B8: Lib1(6R)-2-37 (antibody, human IgG1, lambda, V domains shown)
VH: B1 VH with Y60I, T62Y, P63N, Y64Q, T66S, S84N, A97G
VL: B1 VL with T90L
notes: Tested as full-length antibody (human IgG1/human k) from Expi293
B9: Lib2(5R)-2-25 (antibody, human IgG1, lambda, V domains shown)
VH: B1 VH with G61P, T62P, Y64L, T66G, S84N
VL: B1 VL with T90Y
notes: as for B8
B10: Lib1(6R)-1-39 (antibody, human IgG1, lambda, V domains shown)
VH: B1 VH with Y60T, G61S, T62V, P63N, Y64A, S84N
VL: B1 VL
notes: as for B8

Target: T1, human PAD4 (Cayman Chemical company, Cat 10500) (human, UniProt Q9UM07 1-663)
T1 construct: Bought protein
T1 sequence (Q9UM07 whole entry): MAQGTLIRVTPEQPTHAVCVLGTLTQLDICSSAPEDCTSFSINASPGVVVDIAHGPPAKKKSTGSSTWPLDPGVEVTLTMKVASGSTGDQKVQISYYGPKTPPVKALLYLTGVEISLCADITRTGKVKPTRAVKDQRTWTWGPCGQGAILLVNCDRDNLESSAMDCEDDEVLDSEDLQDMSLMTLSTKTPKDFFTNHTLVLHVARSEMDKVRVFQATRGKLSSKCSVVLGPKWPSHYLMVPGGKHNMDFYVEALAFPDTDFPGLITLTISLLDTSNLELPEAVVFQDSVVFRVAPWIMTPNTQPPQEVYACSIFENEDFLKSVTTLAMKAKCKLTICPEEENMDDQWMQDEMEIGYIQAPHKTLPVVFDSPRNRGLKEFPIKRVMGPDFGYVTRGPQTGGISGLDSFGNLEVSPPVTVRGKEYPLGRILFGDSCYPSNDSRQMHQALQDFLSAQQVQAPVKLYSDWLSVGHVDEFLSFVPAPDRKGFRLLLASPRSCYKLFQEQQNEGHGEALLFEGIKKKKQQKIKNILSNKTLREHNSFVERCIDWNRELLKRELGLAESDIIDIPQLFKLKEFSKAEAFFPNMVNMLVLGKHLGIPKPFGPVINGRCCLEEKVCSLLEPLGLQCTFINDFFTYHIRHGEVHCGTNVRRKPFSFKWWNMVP
Assay: SPR, Biacore T200, antibody captured on Protein A chip, 50 nM human PAD4 as analyte; antigen binding amount divided by antibody binding amount
Description: In order to investigate an antigen-binding ability after the storage, antigen-binding activity measurements were performed using a surface plasmon resonance apparatus Biacore T200 (GE Healthcare). Cryopreserved test antibodies and test antibodies stored at 4° C. or 40° C. for 4 weeks were prepared to 10 μg/mL using a running buffer solution HBS-EP+. Using a Series S Sensorchip Protein A (GE Healthcare), a test antibody solution was added to a flow cell 2 at a flow rate of 10 μL/min for 60 seconds and immobilized on a sensor chip. A flow cell 1 was used as a reference cell. A binding amount 55 seconds after the completion of the addition of the test antibody to the flow cell 2 was subtracted from a binding amount of the flow cell 1 to obtain an antibody binding amount. Next, human PAD4 (Cayman Chemical company, Cat 10500) was prepared to 50 nM using HBS-EP+ and used as an analyte solution. The analyte solution was added at a flow rate of 30 μL/min for 120 seconds to obtain a sensorgram of a bound phase. A binding amount 5 seconds before the completion of the addition of the analyte solution to the flow cell 2 was subtracted from a binding amount of the flow cell 1 to obtain an antigen binding amount. Subsequently, a running buffer solution was added for 180 seconds to obtain a sensorgram of a dissociated phase. The measurements were performed at 25° C. The antibody binding amount and the antigen binding amount were calculated using a data analysis program (GE Healthcare, Biacore T200 Evaluation Software v3.1), and the antigen binding amount under each condition was divided by the antibody binding amount to obtain a relative antigen binding amount. There was no change between the relative antigen-binding amount of a cryopreserved test antibody and the relative antigen-binding amount of a test antibody stored at 4° C. The relative antigen-binding amounts of various test antibodies stored at 40° C. for 4 weeks were compared to the relative antigen-binding amounts of the test antibodies stored at 4° C. for 4 weeks, and the antigen-binding activities were determined.

| antigen-binding activity after storage at 40° C. for 4 weeks, relative to storage at 4° C. [%] | Binder |
| --- | --- |
| 95.6 | B1 |
| 82.2 | B2 |
| 93.9 | B3 |
| 94.7 | B4 |
| 97 | B5 |

Target: T2, biotin-labeled human PAD4 protein (human, UniProt Q9UM07 1-663, biotin on the Avi tag (biotin ligase BirA))
T2 construct: also called Avi tag-human PAD4; biotin-labeled PAD4; not shown: Avi tag left on the N-terminal side after the GST tag was cleaved with PreScission Protease
T2 sequence (Q9UM07 whole entry): as above
Assay: SPR, Biacore T200, biotin-labeled human PAD4 captured on chip, antibody as analyte, single-cycle, 1:1 model
Description: Binding affinities of the test antibodies G8 and G8ss with respect to human PAD4 proteins were determined by measuring a dissociation constant (KD) in HBS-EP+ using a surface plasmon resonance apparatus Biacore T200 (GE Healthcare). A biotin-labeled human PAD4 protein was immobilized on a sensor chip using a Biotin Capture Kit (GE Healthcare). The PAD4 protein was prepared to 0.25 μg/mL using HBS-EP+ and used as a ligand solution. The ligand solution was added to a flow cell at a flow rate of […] for 30 seconds, and then HBS-EP+ was added for 60 seconds. A flow cell to which no ligand solution was added was used as a reference cell. The test antibody was prepared from several hundred pM to several nM using HBS-EP+ and used as an analyte solution. Further, a running buffer solution was used as a blank solution. The blank solution or the analyte solution was added at a flow rate of 30 μL/min for 180 seconds using a single-cycle method, and a dissociation time was 1200 seconds. A sensorgram of the reference cell is subtracted from a sensorgram of the flow cell to which the ligand was added when the blank solution or the analyte solution was added, and further, a sensorgram to which the blank solution was added was subtracted from the sensorgram to which the analyte solution was added, and the result was used for analysis. Binding parameters were calculated using a 1:1 binding model using Biacore T200 Evaluation software (GE Healthcare).

| Kd [nM] | koff [s⁻¹] | kon [M⁻¹ s⁻¹] | Binder |
| --- | --- | --- | --- |
| 0.276 | 0.00176 | 6.37e+06 | B2 |
| 0.214 | 0.00165 | 7.7e+06 | B6 |

Target: Human PAD4 (enzyme inhibition assays) (human, UniProt Q9UM07 1-663, limits assumed)
Sequence (Q9UM07 whole entry): as above
Assay: cell-based or functional assay

| IC50, human PAD4 enzyme inhibitory activity (citrullination of BAEE, colorimetric) [nM] | Binder |
| --- | --- |
| 9.6 | B7 |
| 12.2 | B1 |
| 13.4 | B8 |
| 20.3 | B2 |
| 8.3 | B9 |
| 8.8 | B3 |
| 15.3 | B4 |
| 21.6 | B6 |
| 7.6 | B5 |
| 8.7 | B10 |

Target: T2, biotin-labeled human PAD4 protein
Assay: SPR, Biacore T200, biotin-labeled human PAD4 captured on chip, antibody as analyte, single-cycle, 1:1 model
Remark: another data set of the same source
Description: A biotin-labeled human PAD4 protein was immobilized on a sensor chip using a Biotin Capture Kit (GE Healthcare). The PAD4 protein was prepared to 0.5 μg/mL using HBS-EP+ and used as a ligand solution. The ligand solution was added to a flow cell at a flow rate of 10 μL/min for 30 seconds, and then HBS-EP+ was added for 60 seconds. A flow cell to which no ligand solution was added was used as a reference cell. The test antibody was prepared from several hundred pM to several nM using HBS-EP+ and used as an analyte solution. Further, a running buffer solution was used as a blank solution. The blank solution or the analyte solution was added at a flow rate of 30 μL/min for 180 seconds using a single-cycle method, and a dissociation time was 1200 seconds. A sensorgram of the reference cell is subtracted from a sensorgram of the flow cell to which the ligand was added when the blank solution or the analyte solution was added, and further, a sensorgram to which the blank solution was added was subtracted from the sensorgram to which the analyte solution was added, and the result was used for analysis. Binding parameters were calculated using a 1:1 binding model using Biacore T200 Evaluation software (GE Healthcare). […] The dissociation constants of the antibodies 2-1-47, 3-1-39, 3-2-37, and 4-2-25 with improved complementarity determining regions with respect to human PAD4 protein were respectively 31, 48, 73, and 20 pM.

| Kd [nM] | koff [s⁻¹] | kon [M⁻¹ s⁻¹] | Binder |
| --- | --- | --- | --- |
| 0.031 | 0.000507 | 1.61e+07 | B1 |
| 0.199 | 0.00122 | 6.15e+06 | B2 |
| 0.048 | 0.000626 | 1.3e+07 | B3 |
| 0.073 | 0.000617 | 8.51e+06 | B4 |
| 0.02 | 0.000299 | 1.47e+07 | B5 |

Target: T2, biotin-labeled human PAD4 protein
Assay: SPR, Biacore T200, biotin-labeled human PAD4 captured on chip, IgG as analyte

| Kd [nM] | koff [s⁻¹] | kon [M⁻¹ s⁻¹] | Binder |
| --- | --- | --- | --- |
| 0.0175 | 0.000164 | 9.39e+06 | B7 |
| 0.0358 | 0.000361 | 1.01e+07 | B8 |
| 0.0158 | 0.000202 | 1.28e+07 | B9 |
| 0.208 | 0.00146 | 7.03e+06 | B6 |
| 0.0183 | 0.000108 | 5.9e+06 | B10 |
